Results from ChEMBL document CHEMBL1275523.

Experiments:
Assay type in all cases: cell-based
[1] = substrate: CC(=O)N[C@H]1[C@H]([C@H](O)[C@H](O)CO)O[C@@](Oc2ccc3c(C)cc(=O)oc3c2)(C(=O)O)C[C@@H]1O; test: Activity of human NEU2 expressed in HEK293 cells by fluorometric high-performance liquid chromatography
[2] = substrate: CC(=O)N[C@H]1[C@H]([C@H](O)[C@H](O)CO)O[C@@](Oc2ccc3c(C)cc(=O)oc3c2)(C(=O)O)C[C@@H]1O; test: Activity of human NEU4 expressed in HEK293 cells by fluorometric high-performance liquid chromatography
[3] = substrate: CCCCCCCCCCCCC/C=C/[C@@H](O)[C@H](CO[C@@H]1O[C@H](CO)[C@@H](O[C@@H]2O[C@H](CO)[C@H](O)[C@H](O[C@]3(C(=O)O)C[C@H](O)[C@@H](NC(C)=O)[C@H]([C@H](O)[C@H](O)CO)O3)[C@H]2O)[C@H](O)[C@H]1O)NC(=O)CCCCCCCCCCCCCCCCCCCCCC; test: Activity of human NEU3 expressed in HEK293 cells by fluorometric high-performance liquid chromatography

B1: Sialidase-2 (Homo sapiens), Q9Y3R4 (protein)
chain: MASLPVLQKESVFQSGAHAYRIPALLYLPGQQSLLAFAEQRASKKDEHAELIVLRRGDYDAPTHQVQWQAQEVVAQARLDGHRSMNPCPLYDAQTGTLFLFFIAIPGQVTEQQQLQTRANVTRLCQVTSTDHGRTWSSPRDLTDAAIGPAYREWSTFAVGPGHCLQLHDRARSLVVPAYAYRKLHPIQRPIPSAFCFLSHDHGRTWARGHFVAQDTLECQVAEVETGEQRVVTLNARSHLRARVQAQSTNDGLDFQESQLVKKLVEPPPQGCQGSVISFPSPRSGPGSPAQWLLYTHPTHSWQRADLGAYLNPRPPAPEAWSEPVLLAKGSCAYSDLQSMGTGPDGSPLFGCLYEANDYEEIVFLMFTLKQAFPAEYLPQ
- Km [1]: 1800 µM

B2: Sialidase-4 (Homo sapiens), Q8WWR8 (protein)
chain: MGVPRTPSRTVLFERERTGLTYRVPSLLPVPPGPTLLAFVEQRLSPDDSHAHRLVLRRGTLAGGSVRWGALHVLGTAALAEHRSMNPCPVHDAGTGTVFLFFIAVLGHTPEAVQIATGRNAARLCCVASRDAGLSWGSARDLTEEAIGGAVQDWATFAVGPGHGVQLPSGRLLVPAYTYRVDRRECFGKICRTSPHSFAFYSDDHGRTWRCGGLVPNLRSGECQLAAVDGGQAGSFLYCNARSPLGSRVQALSTDEGTSFLPAERVASLPETAWGCQGSIVGFPAPAPNRPRDDSWSVGPGSPLQPPLLGPGVHEPPEEAAVDPRGGQVPGGPFSRLQPRGDGPRQPGPRPGVSGDVGSWTLALPMPFAAPPQSPTWLLYSHPVGRRARLHMGIRLSQSPLDPRSWTEPWVIYEGPSGYSDLASIGPAPEGGLVFACLYESGARTSYDEISFCTFSLREVLENVPASPKPPNLGDKPRGCCWPS
- Km [2]: 20.3 µM

B3: Sialidase-3 (Homo sapiens), Q9UQ49 (protein)
chain: MEEVTTCSFNSPLFRQEDDRGITYRIPALLYIPPTHTFLAFAEKRSTRRDEDALHLVLRRGLRIGQLVQWGPLKPLMEATLPGHRTMNPCPVWEQKSGCVFLFFICVRGHVTERQQIVSGRNAARLCFIYSQDAGCSWSEVRDLTEEVIGSELKHWATFAVGPGHGIQLQSGRLVIPAYTYYIPSWFFCFQLPCKTRPHSLMIYSDDLGVTWHHGRLIRPMVTVECEVAEVTGRAGHPVLYCSARTPNRCRAEALSTDHGEGFQRLALSRQLCEPPHGCQGSVVSFRPLEIPHRCQDSSSKDAPTIQQSSPGSSLRLEEEAGTPSESWLLYSHPTSRKQRVDLGIYLNQTPLEAACWSRPWILHCGPCGYSDLAALEEEGLFGCLFECGTKQECEQIAFRLFTHREILSHLQGDCTSPGRNPSQFKSN
- Km [3]: 45.6 µM
